This note sets out measurements from ChEMBL document CHEMBL1136204, “Thymidine and thymidine-5'-O-monophosphate analogues as inhibitors of Mycobacterium tuberculosis thymidylate kinase” (Bioorg Med Chem Lett, 2003).

Substrate in data set [1]: Cc1cn([C@H]2C[C@H](O)[C@@H](COP(=O)(O)O)O2)c(=O)[nH]c1=O
Description: Affinity towards thymidine monophosphate kinase (TMPKmt) in Mycobacterium tuberculosis using HPLC chromatography test.

Substrate in data set [2]: Cc1cn([C@H]2C=C[C@@H](COP(=O)(O)O)O2)c(=O)[nH]c1=O
Description: Affinity towards thymidine monophosphate kinase (TMPKmt) in Mycobacterium tuberculosis.

B1: Thymidylate kinase (Mycobacterium tuberculosis), P9WKE1 (protein)
chain: MLIAIEGVDGAGKRTLVEKLSGAFRAAGRSVATLAFPRYGQSVAADIAAEALHGEHGDLASSVYAMATLFALDRAGAVHTIQGLCRGYDVVILDRYVASNAAYSAARLHENAAGKAAAWVQRIEFARLGLPKPDWQVLLAVSAELAGERSRGRAQRDPGRARDNYERDAELQQRTGAVYAELAAQGWGGRWLVVGADVDPGRLAATLAPPDVPS
Broadly, the Km is the substrate concentration at which the rate is half of its maximum. Turning to B1, the Km in data set [1] was 40 µM; in data set [2], 140 µM.
